Results: doi:10.1101/2024.09.10.612331
Each block holds one molecule with its values, some of them ahead of it.

Assays:
[1] = biological target: ALX4 homeodomain (aa 209-274) (mouse cDNA (identical to human in this region, as the paper says)); test: crystal structure
[2] = biological target: ALX4 homeodomain (aa 209-274) (mouse cDNA (identical to human in this region, as the paper says)); test: native gel or EMSA
[3] = biological target: ALX4 homeodomain R216A (R3A) (mouse cDNA (identical to human in this region, as the paper says)); test: native gel or EMSA
[4] = biological target: ALX4 homeodomain V241R (V28R) (mouse cDNA (identical to human in this region, as the paper says)); test: native gel or EMSA
[5] = biological target: ALX4 homeodomain R215A (R2A) (mouse cDNA (identical to human in this region, as the paper says)); test: native gel or EMSA
ALX4 V241R = ALX4 V241R (mouse cDNA (human protein sequence …, UniProt O35137 158-291, V229R)); test: ITC
Sequence of ALX4 V241R (mouse cDNA (O35137 158-291 V229R): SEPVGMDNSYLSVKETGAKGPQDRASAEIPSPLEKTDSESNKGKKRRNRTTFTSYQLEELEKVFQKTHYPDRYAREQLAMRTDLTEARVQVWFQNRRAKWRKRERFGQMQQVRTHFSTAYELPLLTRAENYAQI

ALX4 R216A = ALX4 R216A (mouse cDNA (human protein sequence …, UniProt O35137 158-291, R204A)); test: ITC
Sequence of ALX4 R216A (mouse cDNA (O35137 158-291 R204A): as the sequence (O35137 158-291 V229R) above, with R47A, R72V counted along it

ALX4 R216G = ALX4 R216G (mouse cDNA (human protein sequence …, UniProt O35137 158-291, R204G)); test: ITC
Sequence of ALX4 R216G (mouse cDNA (O35137 158-291 R204G): as the sequence (O35137 158-291 V229R) above, with R47G, R72V counted along it

ALX4 R215A;R216A = ALX4 R215A;R216A (mouse cDNA (human protein sequence …, UniProt O35137 158-291, R203A;R204A)); test: ITC
Sequence of ALX4 R215A;R216A (mouse cDNA (O35137 158-291 R203A/R204A): as the sequence (O35137 158-291 V229R) above, with R46A, R47A, R72V counted along it

[6] = biological target: ALX4 WT (ITC, mutant-series EMSA) (mouse cDNA (human protein sequence …, UniProt O35137 158-291)); test: ITC
Sequence of ALX4 WT (ITC, mutant-series EMSA) (mouse cDNA (O35137 158-291, stated change not applied): as the sequence (O35137 158-291 V229R) above, with R72V counted along it

ALX4 R215A = ALX4 R215A (mouse cDNA (human protein sequence …, UniProt O35137 158-291, R203A)); test: ITC
Sequence of ALX4 R215A (mouse cDNA (O35137 158-291 R203A): as the sequence (O35137 158-291 V229R) above, with R46A, R72V counted along it

ALX4 R272P = ALX4 R272P (mouse cDNA (human protein sequence …, UniProt O35137 158-291, R260P)); test: ITC
Sequence of ALX4 R272P (mouse cDNA (O35137 158-291 R260P): as the sequence (O35137 158-291 V229R) above, with R72V, R103P counted along it

ALX4 R218Q = ALX4 R218Q (mouse cDNA (human protein sequence …, UniProt O35137 158-291, R206Q)); test: ITC
Sequence of ALX4 R218Q (mouse cDNA (O35137 158-291 R206Q): as the sequence (O35137 158-291 V229R) above, with R49Q, R72V counted along it

ALX4 Q225E = ALX4 Q225E (mouse cDNA (human protein sequence …, UniProt O35137 158-291, Q213E)); test: ITC
Sequence of ALX4 Q225E (mouse cDNA (O35137 158-291 Q213E): as the sequence (O35137 158-291 V229R) above, with Q56E, R72V counted along it

ALX4 K211E = ALX4 K211E (mouse cDNA (human protein sequence …, UniProt O35137 158-291, K199E)); test: ITC
Sequence of ALX4 K211E (mouse cDNA (O35137 158-291 K199E): as the sequence (O35137 158-291 V229R) above, with K42E, R72V counted along it

stoichiometry N [1]: 2
Tau (cooperativity factor on the P3 DNA site) [2]: 110
Tau (cooperativity factor on the P4 DNA site) [2]: 1.5
Molecule: ALX4 homeodomain (aa 209-274) (domain or fragment)

fold reduction of cooperativity (Tau on the P3 site) against wild type [3]: 10 fold
Molecule: ALX4 homeodomain R216A (R3A) (domain or fragment)

Tau (cooperativity factor on the P3 DNA site) [4]: 0.327
Molecule: ALX4 homeodomain V241R (V28R) (domain or fragment)

fold reduction of cooperativity (Tau on the P3 site) against wild type [5]: 5 fold
Molecule: ALX4 homeodomain R215A (R2A) (domain or fragment)

B1: 14-mer monomer site ITC duplex (dsDNA)
DNA 1: CGCTAATTAGCTCG
DNA 2: CGAGCTAATTAGCG
Kd (ALX4 V241R): 7.45 ± 5.22 nM
Kd (ALX4 R216A): 15.2 ± 4.63 nM
Kd (ALX4 R216G): 41.8 ± 8.81 nM
Kd (ALX4 R215A;R216A): 214 ± 39.8 nM
Kd [6]: 15.5 ± 0.98 nM
Kd (ALX4 R215A): 30.4 ± 18.5 nM
Kd (ALX4 R272P): 43.6 ± 12.1 nM
binding result (ALX4 R218Q): no binding
Kd (ALX4 Q225E): 52.5 ± 12.3 nM
Kd (ALX4 K211E): 21.5 ± 7.68 nM
